The text below walks through data of publication PMC3985291 (Cell reports, 2014).

For the assay, the target named is Keap1 Kelch domain (recombinant) (human, UniProt Q14145 321-609). Description: ITC.
Sequence of Keap1 Kelch domain (recombinant) (Q14145 321-609): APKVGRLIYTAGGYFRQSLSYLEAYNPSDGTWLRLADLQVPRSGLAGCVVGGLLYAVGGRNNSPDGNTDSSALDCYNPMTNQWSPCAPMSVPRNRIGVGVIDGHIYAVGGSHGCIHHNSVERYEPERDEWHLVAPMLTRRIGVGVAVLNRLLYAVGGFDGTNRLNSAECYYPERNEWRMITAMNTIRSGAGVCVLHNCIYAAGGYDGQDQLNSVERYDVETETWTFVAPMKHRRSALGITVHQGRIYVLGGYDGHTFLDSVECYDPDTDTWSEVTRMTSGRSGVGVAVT

B1: Marburg virus VP24 (recombinant, used for ITC) (natural protein)
chain: MAELSTRYNLPANVTENSINLDLNSTARWIKEPSVGGWTVKWGNFVFHIPNTGMTLLHHLKSNFVVPEWQQTRNLFSHLFKNPKSTIIEPFLALRILLGVALKDQELQQSLIPGFRSIVHMLSEWLLLEVTSAIHISPNLLGIYLTSDMFKILMAGVKNFFNKMFTLHVVNDHGKPSSIEIKLTGQQIIITRVNMGFLVEVRRIDIEPCCGETVLSESVVFGLVAEAVLREHSQMEKGQPLNLTQYMNSKIAI
In the case of B1, the Kd turned out to be 158 ± 20 nM.
